According to patent publication US20180092975A1:

Experiments:
[1] = molecular target: human PD-1 expressed on cells (human) (UniProt Q15116); assay: flow cytometry on CHO cells expressing human PD-1, detection with anti-human IgG Fc, PE GeoMFI; design: unit not given here
[2] = molecular target: cyno PD-1 expressed on cells (cynomolgus monkey) (UniProt B0LAJ3); assay: flow cytometry on CHO cells expressing cyno PD-1, detection with anti-human IgG Fc, PE GeoMFI; design: unit not given here
Chain of UniProt B0LAJ3 (B0LAJ3 entry or part of it limits assumed): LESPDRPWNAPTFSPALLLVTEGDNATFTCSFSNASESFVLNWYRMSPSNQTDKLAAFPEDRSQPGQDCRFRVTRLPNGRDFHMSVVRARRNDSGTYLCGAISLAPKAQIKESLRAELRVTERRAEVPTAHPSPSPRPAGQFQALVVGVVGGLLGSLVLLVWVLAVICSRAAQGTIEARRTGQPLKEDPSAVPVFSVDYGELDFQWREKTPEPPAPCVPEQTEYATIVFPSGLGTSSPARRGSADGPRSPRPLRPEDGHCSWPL

Chain of UniProt Q15116 (Q15116 25-198 limits assumed): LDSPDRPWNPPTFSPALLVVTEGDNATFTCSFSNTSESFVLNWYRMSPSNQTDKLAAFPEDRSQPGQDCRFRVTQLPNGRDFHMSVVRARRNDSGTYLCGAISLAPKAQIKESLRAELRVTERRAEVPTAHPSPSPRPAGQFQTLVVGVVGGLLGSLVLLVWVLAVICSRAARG

Work on huIgG1 Fc yielded a LogEC50 [1] of -7.75 and a LogEC50 [2] of -6.89.
